± gives the standard error. Variants at the floor of the assay were thinned out. Where only a bound is given, the exact number is not on record here.

The values below come from the supplement of paper PMC7125110.

To fix the notation:
B1: glmS ribozyme (parent)
chain: AUAAAAGCGCCAGAACUACAGAAAUGUAGUUGACGAGGAGGAGGUUUAUCGAAUUUUCGGCGGAUGCCUCCAAA

Conditions in all cases: with glucosamine-6-phosphate
The variants in series [1] derive from B1. The series can be described thus: self-cleavage kobs at 40 uM GlcN6P; higher = faster cleavage; RNA array. The method in brief: (§1)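 On sequenced MiSeq chips, barcoded ribozyme variants were made in situ by E. coli RNA polymerase and followed at 37 °C through a hybridised Cy3 probe. Glucosamine-6-phosphate was flowed in at 40 μM to 10 mM in HEPES/KCl/Mg(OAc)2 buffer. Exponential fits to normalised per-tile medians gave kobs, and weighted Michaelis–Menten fits gave kcat and KM.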

In series [2] the parent is B1. The series can be described thus: self-cleavage kobs at 160 uM GlcN6P; higher = faster cleavage; RNA array. The method in brief: as §1
Variants of B1 are the subject of series [3]. The series can be described thus: self-cleavage kobs at 640 uM GlcN6P; higher = faster cleavage; RNA array. The method in brief:
as §1

The variants in series [4] derive from B1. The series can be described thus: self-cleavage kobs at 2500 uM GlcN6P; higher = faster cleavage; RNA array. An outline of the steps:
as §1

Variants of B1 are the subject of series [5]. The series can be described thus: self-cleavage kobs at 10000 uM GlcN6P; higher = faster cleavage; RNA array. An outline of the steps: as §1

Take A15G G41U: in the series with glucosamine-6-phosphate [1], the “self-cleavage kobs at 40 uM GlcN6P” value was found to be 0.000204 ± 2.3e-05 s⁻¹. The “self-cleavage kobs at 160 uM GlcN6P” value in the series with glucosamine-6-phosphate [2] was determined as 0.000282 ± 4.5e-05 s⁻¹. Besides, the “self-cleavage kobs at 640 uM GlcN6P” value with glucosamine-6-phosphate [3] worked out at 0.000507 ± 8.7e-05 s⁻¹. Also, the “self-cleavage kobs at 2500 uM GlcN6P” value in the series with glucosamine-6-phosphate [4] came out at 0.00155 ± 0.00029 s⁻¹.

Turning to C16U U54C, the “self-cleavage kobs at 40 uM GlcN6P” value with glucosamine-6-phosphate [1] came out at 0.000813 ± 0.00013 s⁻¹. For the same variant, the “self-cleavage kobs at 160 uM GlcN6P” value in the series with glucosamine-6-phosphate [2] stood at 0.00146 ± 0.00024 s⁻¹. Besides, in the series with glucosamine-6-phosphate [3], the “self-cleavage kobs at 640 uM GlcN6P” value was 0.00641 ± 0.001 s⁻¹. For the same variant, in the series with glucosamine-6-phosphate [4], the “self-cleavage kobs at 2500 uM GlcN6P” value stood at 0.00606 ± 0.0012 s⁻¹. In addition, the “self-cleavage kobs at 10000 uM GlcN6P” value in the series with glucosamine-6-phosphate [5] was 0.0254 ± 0.0047 s⁻¹.

In the case of G32A C61G U69C, the “self-cleavage kobs at 40 uM GlcN6P” value with glucosamine-6-phosphate [1] was 3.85e-05 ± 1.8e-05 s⁻¹. For the same variant, the “self-cleavage kobs at 2500 uM GlcN6P” value in the series with glucosamine-6-phosphate [4] was found to be 7.4e-05 ± 2.3e-05 s⁻¹. In addition, in the series with glucosamine-6-phosphate [5], the “self-cleavage kobs at 10000 uM GlcN6P” value was found to be 3.49e-05 ± 1.7e-05 s⁻¹.

U31A A33G A39U G43A A48U: the “self-cleavage kobs at 40 uM GlcN6P” value with glucosamine-6-phosphate [1] was less than 1e-05 s⁻¹. Moreover, in the series with glucosamine-6-phosphate [5], the “self-cleavage kobs at 10000 uM GlcN6P” value was less than 1e-05 s⁻¹.

Turning to A12C U30G G32U A33C C58U, the “self-cleavage kobs at 40 uM GlcN6P” value in the series with glucosamine-6-phosphate [1] is less than 1e-05 s⁻¹. Moreover, the “self-cleavage kobs at 10000 uM GlcN6P” value in the series with glucosamine-6-phosphate [5] is less than 1e-05 s⁻¹.

For U56G G62U G63U, in the series with glucosamine-6-phosphate [1], the “self-cleavage kobs at 40 uM GlcN6P” value was less than 1e-05 s⁻¹. Further, the “self-cleavage kobs at 10000 uM GlcN6P” value with glucosamine-6-phosphate [5] is less than 1e-05 s⁻¹.

U30A C58A G60C U69G: the “self-cleavage kobs at 40 uM GlcN6P” value with glucosamine-6-phosphate [1] was less than 1e-05 s⁻¹. The “self-cleavage kobs at 10000 uM GlcN6P” value with glucosamine-6-phosphate [5] is less than 1e-05 s⁻¹.

For A33U C67U C70G, the “self-cleavage kobs at 40 uM GlcN6P” value with glucosamine-6-phosphate [1] was less than 1e-05 s⁻¹.

A12G A53U C58U: the “self-cleavage kobs at 40 uM GlcN6P” value in the series with glucosamine-6-phosphate [1] is less than 1e-05 s⁻¹.

With C10A A12U, the “self-cleavage kobs at 40 uM GlcN6P” value in the series with glucosamine-6-phosphate [1] is less than 1e-05 s⁻¹.

On to C34U A53G, for which, in the series with glucosamine-6-phosphate [1], the “self-cleavage kobs at 40 uM GlcN6P” value is less than 1e-05 s⁻¹. Also, the “self-cleavage kobs at 10000 uM GlcN6P” value with glucosamine-6-phosphate [5] is less than 1e-05 s⁻¹.

For U31G U55G, the “self-cleavage kobs at 40 uM GlcN6P” value with glucosamine-6-phosphate [1] amounted to 0.000486 ± 0.0001 s⁻¹. In the series with glucosamine-6-phosphate [2], the “self-cleavage kobs at 160 uM GlcN6P” value was 0.000859 ± 0.00014 s⁻¹. Besides, the “self-cleavage kobs at 640 uM GlcN6P” value in the series with glucosamine-6-phosphate [3] amounted to 0.00296 ± 0.00071 s⁻¹. In the series with glucosamine-6-phosphate [4], the “self-cleavage kobs at 2500 uM GlcN6P” value is 0.0116 ± 0.0027 s⁻¹. The “self-cleavage kobs at 10000 uM GlcN6P” value with glucosamine-6-phosphate [5] amounted to 0.0152 ± 0.0067 s⁻¹.

As for C16U C34G U57A G62U, in the series with glucosamine-6-phosphate [1], the “self-cleavage kobs at 40 uM GlcN6P” value is less than 1e-05 s⁻¹. Besides, in the series with glucosamine-6-phosphate [5], the “self-cleavage kobs at 10000 uM GlcN6P” value was less than 1e-05 s⁻¹.

G29U G35U C70U: the “self-cleavage kobs at 40 uM GlcN6P” value with glucosamine-6-phosphate [1] was less than 1e-05 s⁻¹. In the series with glucosamine-6-phosphate [4], the “self-cleavage kobs at 2500 uM GlcN6P” value is less than 1e-05 s⁻¹.

Take A15C G37U G40C U55G U65C U69C: the “self-cleavage kobs at 40 uM GlcN6P” value with glucosamine-6-phosphate [1] was less than 1e-05 s⁻¹.

As for G37A U54A, the “self-cleavage kobs at 40 uM GlcN6P” value with glucosamine-6-phosphate [1] is 7.84e-05 ± 1.8e-05 s⁻¹. Besides, the “self-cleavage kobs at 10000 uM GlcN6P” value with glucosamine-6-phosphate [5] is 0.00478 ± 0.00082 s⁻¹.

On to A39U A42C U54C U65C, for which the “self-cleavage kobs at 40 uM GlcN6P” value in the series with glucosamine-6-phosphate [1] was less than 1e-05 s⁻¹. Besides, the “self-cleavage kobs at 640 uM GlcN6P” value with glucosamine-6-phosphate [3] was less than 1e-05 s⁻¹. In addition, the “self-cleavage kobs at 2500 uM GlcN6P” value with glucosamine-6-phosphate [4] was less than 1e-05 s⁻¹.

Turning to G9C U49A, in the series with glucosamine-6-phosphate [1], the “self-cleavage kobs at 40 uM GlcN6P” value is less than 1e-05 s⁻¹. In addition, the “self-cleavage kobs at 640 uM GlcN6P” value in the series with glucosamine-6-phosphate [3] was less than 1e-05 s⁻¹. For the same variant, the “self-cleavage kobs at 2500 uM GlcN6P” value with glucosamine-6-phosphate [4] is less than 1e-05 s⁻¹. Further, the “self-cleavage kobs at 10000 uM GlcN6P” value in the series with glucosamine-6-phosphate [5] is less than 1e-05 s⁻¹.

On to A15U A36C U46G, for which the “self-cleavage kobs at 40 uM GlcN6P” value with glucosamine-6-phosphate [1] was less than 1e-05 s⁻¹. Besides, the “self-cleavage kobs at 10000 uM GlcN6P” value with glucosamine-6-phosphate [5] was less than 1e-05 s⁻¹.

As for A1U U2G A3G C8G A12U G63C C68A, the “self-cleavage kobs at 40 uM GlcN6P” value with glucosamine-6-phosphate [1] was less than 1e-05 s⁻¹. The “self-cleavage kobs at 2500 uM GlcN6P” value with glucosamine-6-phosphate [4] is less than 1e-05 s⁻¹. Besides, in the series with glucosamine-6-phosphate [5], the “self-cleavage kobs at 10000 uM GlcN6P” value was less than 1e-05 s⁻¹.

Turning to A6G G35A A39C G62C U65G C67A, the “self-cleavage kobs at 40 uM GlcN6P” value with glucosamine-6-phosphate [1] was less than 1e-05 s⁻¹.

For A6G A14G A39C, in the series with glucosamine-6-phosphate [1], the “self-cleavage kobs at 40 uM GlcN6P” value is less than 1e-05 s⁻¹. Also, in the series with glucosamine-6-phosphate [4], the “self-cleavage kobs at 2500 uM GlcN6P” value worked out at 9.9e-05 ± 2.3e-05 s⁻¹. Besides, the “self-cleavage kobs at 10000 uM GlcN6P” value with glucosamine-6-phosphate [5] stood at 0.000209 ± 4.5e-05 s⁻¹.

For the variant C50U C61U, the “self-cleavage kobs at 40 uM GlcN6P” value with glucosamine-6-phosphate [1] is less than 1e-05 s⁻¹. Besides, the “self-cleavage kobs at 640 uM GlcN6P” value in the series with glucosamine-6-phosphate [3] is less than 1e-05 s⁻¹. Moreover, the “self-cleavage kobs at 2500 uM GlcN6P” value with glucosamine-6-phosphate [4] is less than 1e-05 s⁻¹. Moreover, in the series with glucosamine-6-phosphate [5], the “self-cleavage kobs at 10000 uM GlcN6P” value is less than 1e-05 s⁻¹.

As for U46G G51U, the “self-cleavage kobs at 40 uM GlcN6P” value in the series with glucosamine-6-phosphate [1] is less than 1e-05 s⁻¹. Also, the “self-cleavage kobs at 160 uM GlcN6P” value with glucosamine-6-phosphate [2] was less than 1e-05 s⁻¹. Also, the “self-cleavage kobs at 640 uM GlcN6P” value with glucosamine-6-phosphate [3] was less than 1e-05 s⁻¹. Besides, the “self-cleavage kobs at 2500 uM GlcN6P” value with glucosamine-6-phosphate [4] is less than 1e-05 s⁻¹. The “self-cleavage kobs at 10000 uM GlcN6P” value with glucosamine-6-phosphate [5] was less than 1e-05 s⁻¹.

Take G35A A53C: the “self-cleavage kobs at 40 uM GlcN6P” value with glucosamine-6-phosphate [1] was less than 1e-05 s⁻¹. The “self-cleavage kobs at 160 uM GlcN6P” value with glucosamine-6-phosphate [2] was less than 1e-05 s⁻¹. The “self-cleavage kobs at 640 uM GlcN6P” value with glucosamine-6-phosphate [3] was less than 1e-05 s⁻¹. Further, the “self-cleavage kobs at 10000 uM GlcN6P” value with glucosamine-6-phosphate [5] is less than 1e-05 s⁻¹.
